Article PMC10397247

What was measured:
Experiment in all cases: two-hybrid library CCmax;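 also: natural log of median RNA to DNA barcode read ratio; higher means stronger binding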
[1] = target: T1, 4H1636-AA; conditions: mean of both orientations
T1 chain: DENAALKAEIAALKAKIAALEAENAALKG

[2] = target: T2, 4H2190-AA; conditions: mean of both orientations
T2 chain: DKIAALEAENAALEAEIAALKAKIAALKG

[3] = target: T3, 4H2729-AA; conditions: mean of both orientations
T3 chain: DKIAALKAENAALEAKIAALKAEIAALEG

[4] = target: T4, 4H2151-AA; conditions: mean of both orientations
T4 chain: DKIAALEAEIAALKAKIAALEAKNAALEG

[5] = target: T5, 4H2883-AA; conditions: mean of both orientations
T5 chain: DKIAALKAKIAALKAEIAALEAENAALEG

[6] = target: T6, 4H2754-AA; conditions: mean of both orientations
T6 chain: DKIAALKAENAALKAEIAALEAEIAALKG

[7] = target: T7, 4H3427-AA; conditions: mean of both orientations
T7 chain: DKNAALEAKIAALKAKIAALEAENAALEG

[8] = target: T8, 4H2078-AA; conditions: mean of both orientations
T8 chain: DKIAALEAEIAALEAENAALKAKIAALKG

[9] = target: T9, 4H317-AA; conditions: mean of both orientations
T9 chain: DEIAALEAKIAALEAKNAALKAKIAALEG

[10] = target: T10, 4H2944-AA; conditions: mean of both orientations
T10 chain: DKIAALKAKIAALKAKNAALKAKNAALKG

[11] = target: T11, 4H2505-AA; conditions: mean of both orientations
T11 chain: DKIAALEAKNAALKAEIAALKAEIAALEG

[12] = target: T12, 4H1867-AA; conditions: mean of both orientations
T12 chain: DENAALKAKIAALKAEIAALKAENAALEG

[13] = target: T13, 4H454-AA; conditions: mean of both orientations
T13 chain: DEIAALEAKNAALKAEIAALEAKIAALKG

[14] = target: T14, 4H3655-AA; conditions: mean of both orientations
T14 chain: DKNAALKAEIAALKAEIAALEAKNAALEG

[15] = target: T15, 4H335-AA
T15 chain: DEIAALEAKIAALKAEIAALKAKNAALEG

[16] = target: T16, 4H2575-AA; conditions: mean of both orientations
T16 chain: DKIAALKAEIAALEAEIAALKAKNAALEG

[17] = target: T17, 4H780-AA; conditions: mean of both orientations
T17 chain: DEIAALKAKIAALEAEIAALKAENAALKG

[18] = target: T18, 4H3844-AA; conditions: mean of both orientations
T18 chain: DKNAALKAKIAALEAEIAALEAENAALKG

[19] = target: T19, 4H429-AA; conditions: mean of both orientations
T19 chain: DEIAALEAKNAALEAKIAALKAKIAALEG

[20] = target: T20, 4H678-AA; conditions: mean of both orientations
T20 chain: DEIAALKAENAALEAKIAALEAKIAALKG

[21] = target: T21, 4H605-AA; conditions: mean of both orientations
T21 chain: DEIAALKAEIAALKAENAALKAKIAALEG

[22] = target: T22, 4H234-AA; conditions: mean of both orientations
T22 chain: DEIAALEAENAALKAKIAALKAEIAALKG

[23] = target: T23, 4H993-AA; conditions: mean of both orientations
T23 chain: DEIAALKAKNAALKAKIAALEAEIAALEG

[24] = target: T24, 4H2617-AA; conditions: mean of both orientations
T24 chain: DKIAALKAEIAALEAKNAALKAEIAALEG

[25] = target: T25, 4H2642-AA; conditions: mean of both orientations
T25 chain: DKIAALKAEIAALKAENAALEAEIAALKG

[26] = target: T26, 4H2949-AA; conditions: mean of both orientations
T26 chain: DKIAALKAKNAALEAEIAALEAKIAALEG

[27] = target: T27, 4H566-AA; conditions: mean of both orientations
T27 chain: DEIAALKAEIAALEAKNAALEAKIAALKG

[28] = target: T28, 4H2277-AA; conditions: mean of both orientations
T28 chain: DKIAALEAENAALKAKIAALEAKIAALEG

[29] = target: T29, 4H2466-AA; conditions: mean of both orientations
T29 chain: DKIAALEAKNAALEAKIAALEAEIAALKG

[30] = target: T30, 4H342-AA; conditions: mean of both orientations
T30 chain: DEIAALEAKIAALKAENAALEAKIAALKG

[31] = target: T31, 4H2837-AA; conditions: mean of both orientations
T31 chain: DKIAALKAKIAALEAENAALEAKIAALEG

[32] = target: T32, 4H717-AA; conditions: mean of both orientations
T32 chain: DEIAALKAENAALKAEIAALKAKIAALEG

[33] = target: T33, 4H794-AA; conditions: mean of both orientations
T33 chain: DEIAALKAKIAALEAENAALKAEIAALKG

[34] = target: T34, 4H906-AA; conditions: mean of both orientations
T34 chain: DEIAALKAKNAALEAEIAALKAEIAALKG

[35] = target: T35, 4H3112-AA; conditions: mean of both orientations
T35 chain: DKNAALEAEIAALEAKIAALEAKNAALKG

[36] = target: T36, 4H3921-AA; conditions: mean of both orientations
T36 chain: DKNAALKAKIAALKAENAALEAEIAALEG

[37] = target: T37, 4H2393-AA; conditions: mean of both orientations
T37 chain: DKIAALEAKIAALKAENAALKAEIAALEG

[38] = target: T38, 4H3343-AA; conditions: mean of both orientations
T38 chain: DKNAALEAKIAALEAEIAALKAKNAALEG

[39] = target: T39, 4H3627-AA; conditions: mean of both orientations
T39 chain: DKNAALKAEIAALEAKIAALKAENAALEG

[40] = target: T40, 4H48-AA; conditions: mean of both orientations
T40 chain: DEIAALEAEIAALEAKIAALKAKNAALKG

[41] = target: T41, 4H2165-AA; conditions: mean of both orientations
T41 chain: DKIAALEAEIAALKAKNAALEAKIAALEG

[42] = target: T42, 4H1552-AA
T42 chain: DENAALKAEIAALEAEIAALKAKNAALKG

[43] = target: T43, 4H3606-AA; conditions: mean of both orientations
T43 chain: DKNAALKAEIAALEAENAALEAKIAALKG

[44] = target: T44, 4H2354-AA; conditions: mean of both orientations
T44 chain: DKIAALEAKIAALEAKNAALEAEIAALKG

[45] = target: T45, 4H881-AA; conditions: mean of both orientations
T45 chain: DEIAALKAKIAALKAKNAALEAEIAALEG

[46] = target: T46, APC9182-AA; conditions: mean of both orientations
T46 chain: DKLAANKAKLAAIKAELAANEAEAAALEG

[47] = target: T47, APC3265-AA; conditions: mean of both orientations
T47 chain: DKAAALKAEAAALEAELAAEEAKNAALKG

[48] = target: T48, APC4100-AA; conditions: mean of both orientations
T48 chain: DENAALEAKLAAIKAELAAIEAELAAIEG

[49] = target: T49, APC9141-AA; conditions: mean of both orientations
T49 chain: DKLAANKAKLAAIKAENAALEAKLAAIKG

[50] = target: T50, APC2811-AA; conditions: mean of both orientations
T50 chain: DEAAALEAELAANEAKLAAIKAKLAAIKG

[51] = target: T51, APC8401-AA; conditions: mean of both orientations
T51 chain: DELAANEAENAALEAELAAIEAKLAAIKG

[52] = target: T52, APC4336-AA; conditions: mean of both orientations
T52 chain: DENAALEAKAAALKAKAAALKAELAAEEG

[53] = target: T53, APC3354-AA; conditions: mean of both orientations
T53 chain: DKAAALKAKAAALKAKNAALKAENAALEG

[54] = target: T54, APC3881-AA; conditions: mean of both orientations
T54 chain: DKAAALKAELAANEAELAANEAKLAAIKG

[55] = target: T55, APC2474-AA
T55 chain: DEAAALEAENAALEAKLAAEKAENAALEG

[56] = target: T56, APC8516-AA; conditions: mean of both orientations
T56 chain: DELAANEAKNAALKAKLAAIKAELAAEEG

[57] = target: T57, APC2981-AA; conditions: mean of both orientations
T57 chain: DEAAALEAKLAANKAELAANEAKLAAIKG

[58] = target: T58, APC5531-AA; conditions: mean of both orientations
T58 chain: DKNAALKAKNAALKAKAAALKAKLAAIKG

[59] = target: T59, APC2543-AA; conditions: mean of both orientations
T59 chain: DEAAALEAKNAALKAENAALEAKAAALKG

[60] = target: T60, APC5009-AA; conditions: mean of both orientations
T60 chain: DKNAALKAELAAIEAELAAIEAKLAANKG

[61] = target: T61, APC2724-AA; conditions: mean of both orientations
T61 chain: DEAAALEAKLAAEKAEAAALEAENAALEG

[62] = target: T62, APC3323-AA; conditions: mean of both orientations
T62 chain: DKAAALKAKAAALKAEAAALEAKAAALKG

[63] = target: T63, APC542-AA; conditions: mean of both orientations
T63 chain: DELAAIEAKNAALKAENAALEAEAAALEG

[64] = target: T64, APC6088-AA; conditions: mean of both orientations
T64 chain: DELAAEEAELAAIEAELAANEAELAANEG

[65] = target: T65, APC7524-AA; conditions: mean of both orientations
T65 chain: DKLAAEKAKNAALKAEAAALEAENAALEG

[66] = target: T66, APC9806-AA; conditions: mean of both orientations
T66 chain: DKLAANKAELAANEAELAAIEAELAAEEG

[67] = target: T67, APC2556-AA; conditions: mean of both orientations
T67 chain: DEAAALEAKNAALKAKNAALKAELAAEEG

[68] = target: T68, APC9291-AA; conditions: mean of both orientations
T68 chain: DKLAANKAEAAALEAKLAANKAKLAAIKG

## DENAALKAEIAALEAEIAALKAKNAALKG [4H1552-AA]
[1]
  interaction score: 0.254
[2]
  interaction score: -0.831
[3]
  interaction score: -0.018
[4]
  interaction score: -0.598
[5]
  interaction score: 2.2
[6]
  interaction score: -0.498
[7]
  interaction score: 1.64
[8]
  interaction score: -0.958
[9]
  interaction score: 0.795
[10]
  interaction score: -1.04
[11]
  interaction score: -0.681
[12]
  interaction score: 2.28
[13]
  interaction score: -0.754
[14]
  interaction score: 1.01
[15]
  interaction score: 1.76
[16]
  interaction score: -0.206
[17]
  interaction score: 0.0206
[18]
  interaction score: 1.43
[19]
  interaction score: -0.746
[20]
  interaction score: -0.931
[21]
  interaction score: -1.23
[22]
  interaction score: 1.6
[23]
  interaction score: -0.53
[24]
  interaction score: -0.622
[25]
  interaction score: 0.755
[26]
  interaction score: -1.42
[27]
  interaction score: -0.817
[28]
  interaction score: -1.3
[29]
  interaction score: -1.4
[30]
  interaction score: -0.367
[31]
  interaction score: -0.547
[32]
  interaction score: -0.949
[33]
  interaction score: -1.55
[34]
  interaction score: -1.18
[35]
  interaction score: -0.246
[36]
  interaction score: -0.743
[37]
  interaction score: -1.36
[38]
  interaction score: 0.455
[39]
  interaction score: 1.45
[40]
  interaction score: 0.191
[41]
  interaction score: -1.44
[42]
  interaction score: 0.838
[43]
  interaction score: -0.722
[44]
  interaction score: -1.41
[45]
  interaction score: -0.939

## DEAAALEAENAALEAKLAAEKAENAALEG [APC2474-AA]
[46]
  interaction score: -1.69
[47]
  interaction score: -1.52
[48]
  interaction score: -1.97
[49]
  interaction score: -2.1
[50]
  interaction score: -1.58
[51]
  interaction score: -1.53
[52]
  interaction score: -1.67
[53]
  interaction score: -1.35
[54]
  interaction score: -1.83
[55]
  interaction score: -1.69
[56]
  interaction score: -1.93
[57]
  interaction score: -1.45
[58]
  interaction score: -1.71
[59]
  interaction score: -1.61
[60]
  interaction score: -1.39
[61]
  interaction score: -1.93
[62]
  interaction score: -1.45
[63]
  interaction score: -1.4
[64]
  interaction score: -1.54
[65]
  interaction score: -2.27
[66]
  interaction score: -1.64
[67]
  interaction score: -1.49
[68]
  interaction score: -1.71
